According to patent US20170044236A1 (GENERAL HOSPITAL, published 2017):
No end group written: not given here.

B1: wild-type integrin αVβ3 on cells (K562-αVβ3, M21, HEK293T) (receptor)
chain 1: FNLDVDSPAEYSGPEGSYFGFAVDFFVPSASSRMFLLVGAPKANTTQPGIVEGGQVLKCDWSSTRRCQPIEFDATGNRDYAKDDPLEFKSHQWFGASVRSKQDKILACAPLYHWRTEMKQEREPVGTCFLQDGTKTVEYAPCRSQDIDADGQGFCQGGFSIDFTKADRVLLGGPGSFYWQGQLISDQVAEIVSKYDPNVYSIKYNNQLATRTAQAIFDDSYLGYSVAVGDFNGDGIDDFVSGVPRAARTLGMVYIYDGKNMSSLYNFTGEQMAAYFGFSVAATDINGDDYADVFIGAPLFMDRGSDGKLQEVGQVSVSLQRASGDFQTTKLNGFEVFARFGSAIAPLGDLDQDGFNDIAIAAPYGGEDKKGIVYIFNGRSTGLNAVPSQILEGQWAARSMPPSFGYSMKGATDIDKNGYPDLIVGAFGVDRAILYRARPVITVNAGLEVYPSILNQDNKTCSLPGTALKVSCFNVRFCLKADGKGVLPRKLNFQVELLLDKLKQKGAIRRALFLYSRSPSHSKNMTISRGGLMQCEELIAYLRDESEFRDKLTPITIFMEYRLDYRTAADTTGLQPILNQFTPANISRQAHILLDCGEDNVCKPKLEVSVDSDQKKIYIGDDNPLTLIVKAQNQGEGAYEAELIVSIPLQADFIGVVRNNEALARLSCAFKTENQTRQVVCDLGNPMKAGTQLLAGLRFSVHQQSEMDTSVKFDLQIQSSNLFDKVSPVVSHKVDLAVLAAVEIRGVSSPDHIFLPIPNWEHKENPETEEDVGPVVQHIYELRNNGPSSFSKAMLHLQWPYKYNNNTLLYILHYDIDGPMNCTSDMEINPLRIKISSLQTTEKNDTVAGQGERDHLITKRDLALSEGDIHTLGCGVAQCLKIVCQVGRLDRGKSAILYVKSLLWTETFMNKENQNHSYSLKSSASFNVIEFPYKNLPIEDITNSTLVTTNVTWGIQPAPMPVPVWVIILAVLAGLLLLAVLVFVMYRMGFFKRVRPPQEEQEREQLQPHENGEGNSET
chain 2: GPNICTTRGVSSCQQCLAVSPMCAWCSDEALPLGSPRCDLKENLLKDNCAPESIEFPVSEARVLEDRPLSDKGSGDSSQVTQVSPQRIALRLRPDDSKNFSIQVRQVEDYPVDIYYLMDLSYSMKDDLWSIQNLGTKLATQMRKLTSNLRIGFGAFVDKPVSPYMYISPPEALENPCYDMKTTCLPMFGYKHVLTLTDQVTRFNEEVKKQSVSRNRDAPEGGFDAIMQATVCDEKIGWRNDASHLLVFTTDAKTHIALDGRLAGIVQPNDGQCHVGSDNHYSASTTMDYPSLGLMTEKLSQKNINLIFAVTENVVNLYQNYSELIPGTTVGVLSMDSSNVLQLIVDAYGKIRSKVELEVRDLPEELSLSFNATCLNNEVIPGLKSCMGLKIGDTVSFSIEAKVRGCPQEKEKSFTIKPVGFKDSLIVQVTFDCDCACQAQAEPNSHRCNNGNGTFECGVCRCGPGWLGSQCECSEEDYRPSQQDECSPREGQPVCSQRGECLCGQCVCHSSDFGKITGKYCECDDFSCVRYKGEMCSGHGQCSCGDCLCDSDWTGYYCNCTTRTDTCMSSNGLLCSGRGKCECGSCVCIQPGSYGDTCEKCPTCPDACTFKKECVECKKFDREPYMTENTCNRYCRDEIESVKELKDTGKDAVNCTYKNEDDCVVRFQYYEDSSGKSILYVVEEPECPKGPDILVVLLSVMGAILLIGLAALLIWKLLITIHDRKEFAKFEEERARAKWDTANNPLYKEATSTFTNITYRGT
notes: also called WT αVβ3; cellular αVβ3

How the values were obtained:
[1] = biological target: B1; assay: M21 cells, unlabeled FN10, AP5 read-out by flow cytometry
Method: (§1) K562-αVβ3 cells, transiently transfected HEK293T or αVβ3⁺ M21 cells (0.5×10⁶ in 100 μl WB) were incubated in the absence or presence of unlabeled soluble FN10 (5 μg) in Ca²⁺/Mg²⁺ or in Mn²⁺ (30 min; at 25° C.). Alexa647-labeled AP5 Fab (plus Alexa488-labeled AP3, when HEK293T cells were used), unlabeled anti-LIBS-1 (all to 10 μg/ml) or LIBS-6 ascites (to 1:50 dilution) were added, and the cells incubated for an additional 30 min before washing. APC-labeled goat anti-mouse Fc-specific antibody was added to anti-LIBS-1- or anti-LIBS-6-bound M21 cells, cells were incubated for an additional 30 min at 4° C. then washed, resuspended, fixed in 4% paraformaldehyde and analyzed by flow cytometry. LIBS epitope expression was measured and expressed as MFI (in case of K562-αVβ3 or M21 cells) and normalized (in case of HEK293T cells) by dividing its MFI by the MFI for Alexa488-labeled AP3, and multiplied by 100.

[2] = biological target: B1; assay: flow cytometry on K562-αVβ3, culture supernatant, fluoresceinated anti-human Fc mAb, Ca2+/Mg2+
Method: (§2) Binding of soluble knottin dimers to αVβ3-K562 cells was expressed as mean fluorescence intensity (MFI), as determined using FlowJo software. […] Alexa647-labeled mAb AP5 Fab (10 μg/ml) was added, and cells incubated for an additional 30 min before washing. APC-labeled goat anti-mouse Fc-specific antibody was added to anti-LIBS-1- or anti-LIBS-6-bound M21 cells for an additional 30 min at 4° C. Cells were then washed, resuspended, fixed in 4% paraformaldehyde and analyzed by flow cytometry. AP5 epitope expression was measured and expressed as MFI.
as §2, with “Cells were washed, resuspended, fixed in 4% paraformaldehyde, and analyzed using FACSCalibur or BD-LSRII flow cytometers (BD Biosciences). Binding” for “Binding”, “Fe-specific” for “Fc-specific”

[3] = biological target: T1, wild-type 10th type-III RGD-domain of human fibronectin (wtFN10) (human, UniProt P02751 1539-1631); assay: M21 cells, unlabeled FN10, AP5 read-out by flow cytometry
T1 construct: Expressed in bacteria with an N-terminal His tag (S1417-T1509) and a thrombin cleavage site; also called wild-type FN10
Method: as §1

Row | Binder | binding result [2] | also measured
1 | hFN10/B (designed binder, hFN10 with the three residues flanking RGDWN changed to match barbourin; His tag as for hFN10) SDVPRDLEVVAATPTSLLISWDAPAVTVRYYRITYGETGGNSPVQEFTVPGSKSTATISGLKPGVDYTITVYAVIARGDWNDGSKPISINY |  | binding result [1]: binds
2 | GCPRPRGDNPPLTCSQDSDCLAGCVCGPNGFCG (Fc fusion, ends and bridges not checked; also: C-terminal His tag on knottin, fused at C-terminus to human IgG Fc, Fc fusion dimer, The order of His tag and Fc is read from 'c-terminal his-tagged ... fused at the c-terminus to the Fc fragment'; also called WT 2.5F; WT rEETI 2.5F; not shown: C-terminal His tag of the knottin; Fc fragment of human IgG) [WT knottin 2.5F-Fc fusion protein (rEETI 2.5F)] | binds | 
3 | GCPRPRGDWNPLTCSQDSDCLAGCVCGPNGFCG (Fc fusion, ends and bridges not checked; also: C-terminal His tag, number of His and linker not given here, fused at C-terminus to Fc fragment of human IgG, Made by site-directed mutagenesis of the WT rEETI 2.5F construct; tested as culture supernatant; not shown: C-terminal His tag of the knottin; Fc fragment of human IgG) [modified knottin 2.5F M1, Fc fusion] | binds | 
4 | GCPRPRGDWNEGTCSQDSDCLAGCVCGPNGFCG (Fc fusion, ends and bridges not checked; also: C-terminal His tag, number of His and linker not given here, fused at C-terminus to Fc fragment of human IgG, Made by site-directed mutagenesis of the WT rEETI 2.5F construct; tested as culture supernatant; not shown: C-terminal His tag of the knottin; Fc fragment of human IgG) [modified knottin 2.5F M, Fc fusion] | binds | 
5 | B1 |  | binding result [3]: binds
